From publication PMC2173940

Experiments:
[1] = target: soluble FcγRIIb (UniProt P31994); assay: SPR; BIAcore 2000; FcγRIIa, FcγRIIb or FcγRIIIa amine-coupled to CM5 (8000-10000 RU); IgG1-4, with or without EndoS treatment, injected, typically 10-1.25 µg/ml, 35 µl/min, 25°C; 10 mM HEPES pH 7.5, 150 mM NaCl, 0.005% P20, 3.4 mM EDTA; 1:1 Langmuir fit; empty flow cell as reference
[2] = target: soluble FcγRIIa (UniProt P12318); assay: as above
[3] = target: human IgG3 (human); assay: SPR; BIAcore 2000; IgG1-4 or deglycosylated IgG1-4 amine-coupled to CM5 (8000-10000 RU); EndoS or EndoS(E235Q) injected, typically 10-1.25 µg/ml, 35 µl/min, 25°C; 10 mM HEPES pH 7.5, 150 mM NaCl, 0.005% P20, 3.4 mM EDTA; 1:1 Langmuir fit; deglycosylated IgG flow cells as reference
[4] = target: human IgG4 (human); assay: as above
[5] = target: human IgG2 (human); assay: as above
[6] = target: human IgG1 (human); assay: as above

UniProt P31994, sequence (P31994 43-217): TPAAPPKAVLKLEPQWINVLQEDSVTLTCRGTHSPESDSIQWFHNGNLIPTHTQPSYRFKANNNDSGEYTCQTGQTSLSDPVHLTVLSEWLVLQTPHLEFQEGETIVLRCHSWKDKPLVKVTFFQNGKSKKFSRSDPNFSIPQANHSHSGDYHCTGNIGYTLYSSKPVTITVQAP
UniProt P12318, sequence (P12318 34-217): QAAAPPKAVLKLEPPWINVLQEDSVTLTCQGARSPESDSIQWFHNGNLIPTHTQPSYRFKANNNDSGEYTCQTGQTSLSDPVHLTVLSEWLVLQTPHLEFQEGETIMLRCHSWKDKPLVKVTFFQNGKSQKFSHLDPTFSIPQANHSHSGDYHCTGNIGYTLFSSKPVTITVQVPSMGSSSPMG

Molecule: human IgG4 (antibody)
- Kd [1]: 200 nM
- koff [1]: 0.0069 s⁻¹
- kon [1]: 34000 M⁻¹ s⁻¹

Molecule: human IgG1 (antibody)
- Kd [2]: 97 nM

B1: EndoS(E235Q), inactive form of EndoS (enzyme)
chain: EEKTVQVQKGLPSIDSLHYLSENSKKEFKEELSKAGQESQKVKEILAKAQQADKQAQELAKMKIPEKIPMKPLHGSLYGGYFRTWHDKTSDPTEKDKVNSMGELPKEVDLAFIFHDWTKDYSLFWKELATKHVPKLNKQGTRVIRTIPWRFLAGGDNSGIAEDTSKYPNTPEGNKALAKAIVDEYVYKYNLDGLDVDVQHDSIPKVDKKEDTAGVERSIQVFEEIGKLIGPKGVDKSRLFIMDSTYMADKNPLIERGAPYINLLLVQVYGSQGEKGGWEPVSNRPEKTMEERWQGYSKYIRPEQYMIGFSFYEENAQEGNLWYDINSRKDEDKANGINTDITGTRAERYARWQPKTGGVKGGIFSYAIDRDGVAHQPKKYAKQKEFKDATDNIFHSDYSVSKALKTVMLKDKSYDLIDEKDFPDKALREAVMAQVGTRKGDLERFNGTLRLDNPAIQSLEGLNKFKKLAQLDLIGLSRITKLDRSVLPANMKPGKDTLETVLETYKKDNKEEPATIPPVSLKVSGLTGLKELDLSGFDRETLAGLDAATLTSLEKVDISGNKLDLAPGTENRQIFDTMLSTISNHVGSNEQTVKFDKQKPTGHYPDTYGKTSLRLPVANEKVDLQSQLLFGTVTNQGTLINSEADYKAYQNHKIAGRSFVDSNYHYNNFKVSYENYTVKVTDSTLGTTTDKTLATDKEETYKVDFFSPADKTKAVHTAKVIVGDEKTMMVNLAEGATVIGGSADPVNARKVFDGQLGSETDNISLGWDSKQSIIFKLKEDGLIKHWRFFNDSARNPETTNKPIQEASLQIFNIKDYNLDNLLENPNKFDDEKYWITVDTYSAQGERATAFSNTLNNITSKYWRVVFDTKGDRYSSPVVPELQILGYPLPNADTIMKTVTTAKELSQQKDKFSQKMLDELKIKEMALETSLNSKIFDVTAINANAGVLKDCIEKRQLLKK
- Kd [3]: 83 nM
- koff [3]: 0.0089 s⁻¹
- kon [3]: 107000 M⁻¹ s⁻¹
- Kd [4]: 140 nM
- koff [4]: 0.002 s⁻¹
- kon [4]: 15000 M⁻¹ s⁻¹
- Kd [5]: 210 nM
- koff [5]: 0.0025 s⁻¹
- kon [5]: 12000 M⁻¹ s⁻¹
- Kd [6]: 420 nM
- koff [6]: 0.0176 s⁻¹
- kon [6]: 42000 M⁻¹ s⁻¹
